Paper PMC9482650, “Quantitative fragmentomics allow affinity mapping of interactomes” (Nature Communications, 2022)

T1: ARHGEF11, O15085
T1 sequence (O15085 42-136, limits assumed, looked up): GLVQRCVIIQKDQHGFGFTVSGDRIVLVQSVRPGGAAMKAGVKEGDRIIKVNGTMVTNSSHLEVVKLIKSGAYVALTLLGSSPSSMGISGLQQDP

T2: CARD11, Q9BXL7
T2 sequence (Q9BXL7 662-765, limits assumed, looked up): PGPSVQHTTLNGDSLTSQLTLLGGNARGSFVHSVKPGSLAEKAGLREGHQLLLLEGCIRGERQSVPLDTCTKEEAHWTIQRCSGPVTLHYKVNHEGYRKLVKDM

T3: DVL3, Q92997
T3 sequence (Q92997 244-331, limits assumed, looked up): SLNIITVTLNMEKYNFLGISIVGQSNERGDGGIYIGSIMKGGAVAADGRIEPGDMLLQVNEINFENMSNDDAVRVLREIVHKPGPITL

T4: GRIP1_3, Q9Y3R0
T4 sequence (Q9Y3R0 247-346, limits assumed, looked up): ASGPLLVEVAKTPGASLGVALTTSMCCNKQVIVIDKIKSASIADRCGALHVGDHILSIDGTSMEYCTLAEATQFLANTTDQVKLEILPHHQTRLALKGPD

T5: GRIP1_7, Q9Y3R0
T5 sequence (Q9Y3R0 999-1096, limits assumed, looked up): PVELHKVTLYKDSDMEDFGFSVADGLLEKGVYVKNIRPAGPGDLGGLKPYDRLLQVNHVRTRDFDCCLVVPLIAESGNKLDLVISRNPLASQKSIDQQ

T6: HTRA3, P83110
T6 sequence (P83110 354-453, limits assumed, looked up): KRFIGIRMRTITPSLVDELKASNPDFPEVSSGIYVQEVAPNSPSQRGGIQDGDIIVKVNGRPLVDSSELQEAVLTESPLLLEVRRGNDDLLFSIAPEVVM

T7: LNX2_3, Q8N448
T7 sequence (Q8N448 463-564, limits assumed, looked up): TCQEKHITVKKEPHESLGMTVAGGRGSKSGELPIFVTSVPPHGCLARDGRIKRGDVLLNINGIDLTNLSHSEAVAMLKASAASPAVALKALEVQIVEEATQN

T8: LRRC7, Q96NW7
T8 sequence (Q96NW7 1440-1537, limits assumed, looked up): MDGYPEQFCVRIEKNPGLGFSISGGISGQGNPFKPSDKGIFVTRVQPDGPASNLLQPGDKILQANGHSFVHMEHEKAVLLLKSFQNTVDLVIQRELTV

T9: MPDZ_12, O75970
T9 sequence (O75970 1857-1958, limits assumed, looked up): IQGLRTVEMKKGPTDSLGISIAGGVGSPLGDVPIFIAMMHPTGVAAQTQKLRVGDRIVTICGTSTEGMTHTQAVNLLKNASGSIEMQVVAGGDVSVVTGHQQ

T10: RHPN1, Q8TCX5
T10 sequence (Q8TCX5 508-602, limits assumed, looked up): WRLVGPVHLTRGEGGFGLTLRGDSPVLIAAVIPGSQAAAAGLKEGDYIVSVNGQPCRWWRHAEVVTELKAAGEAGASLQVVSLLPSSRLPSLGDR

B1: PKN2, Q16513 (peptide)
chain: RDFDYIADWC
B2: YAP1, P46937 (peptide)
chain: LDKESFLTWL

Biological target: T1, ARHGEF11, O15085
Test: holdup assay
Design: key: below the threshold = too weak to quantify, mostly under pKd 3.1 to 4
Details: plain residues with an end cap or a label only (N-terminal biotin on a linker: ado-ado)

Binder | pKd
B1 | 3.68
B2 | 5.32

Biological target: T2, CARD11, Q9BXL7
Test: holdup assay
Design: key: below the threshold = too weak to quantify, mostly under pKd 3.1 to 4
Details: plain residues with an end cap or a label only (N-terminal biotin on a linker: ado-ado)

Binder | pKd
B1 | below the threshold
B2 | 3.64

Biological target: DLG5_1, Q8TDM6
Sequence (Q8TDM6 617-713): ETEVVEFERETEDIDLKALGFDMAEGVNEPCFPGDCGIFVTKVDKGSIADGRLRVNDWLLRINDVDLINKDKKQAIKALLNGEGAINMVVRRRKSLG
Test: holdup assay
Design: key: below the threshold = too weak to quantify, mostly under pKd 3.1 to 4
Details: plain residues with an end cap or a label only (N-terminal biotin on a linker: ado-ado)

Binder | pKd
B1 | below the threshold
B2 | below the threshold

Biological target: T3, DVL3, Q92997
Test: holdup assay
Design: key: below the threshold = too weak to quantify, mostly under pKd 3.1 to 4
Details: plain residues with an end cap or a label only (N-terminal biotin on a linker: ado-ado)

Binder | pKd
B1 | below the threshold
B2 | 4.64

Biological target: GIPC2, Q8TF65
Sequence (Q8TF65 112-203): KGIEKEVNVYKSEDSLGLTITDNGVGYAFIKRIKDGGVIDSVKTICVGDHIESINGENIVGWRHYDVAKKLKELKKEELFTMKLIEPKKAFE
Test: holdup assay
Design: key: below the threshold = too weak to quantify, mostly under pKd 3.1 to 4
Details: plain residues with an end cap or a label only (N-terminal biotin on a linker: ado-ado)

Binder | pKd
B1 | below the threshold
B2 | below the threshold

Biological target: GRASP, Q7Z6J2
Sequence (Q7Z6J2 96-193): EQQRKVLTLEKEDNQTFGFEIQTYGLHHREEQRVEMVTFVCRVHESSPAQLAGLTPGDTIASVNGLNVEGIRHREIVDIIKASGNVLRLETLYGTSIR
Test: holdup assay
Design: key: below the threshold = too weak to quantify, mostly under pKd 3.1 to 4
Details: plain residues with an end cap or a label only (N-terminal biotin on a linker: ado-ado)

Binder | pKd
B1 | 4.3
B2 | 5.31

Biological target: T4, GRIP1_3, Q9Y3R0
Test: holdup assay
Design: key: below the threshold = too weak to quantify, mostly under pKd 3.1 to 4
Details: plain residues with an end cap or a label only (N-terminal biotin on a linker: ado-ado)

Binder | pKd
B1 | below the threshold
B2 | below the threshold

Biological target: T5, GRIP1_7, Q9Y3R0
Test: holdup assay
Design: key: below the threshold = too weak to quantify, mostly under pKd 3.1 to 4
Details: plain residues with an end cap or a label only (N-terminal biotin on a linker: ado-ado)

Binder | pKd
B1 | below the threshold
B2 | below the threshold

Biological target: GRIP2_5, Q9C0E4
Sequence (Q9C0E4 544-642): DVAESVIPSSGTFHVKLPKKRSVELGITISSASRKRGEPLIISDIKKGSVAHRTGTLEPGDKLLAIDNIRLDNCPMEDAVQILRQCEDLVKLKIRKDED
Test: holdup assay
Design: key: below the threshold = too weak to quantify, mostly under pKd 3.1 to 4
Details: plain residues with an end cap or a label only (N-terminal biotin on a linker: ado-ado)

Binder | pKd
B1 | below the threshold
B2 | below the threshold

Biological target: T6, HTRA3, P83110
Test: holdup assay
Design: key: below the threshold = too weak to quantify, mostly under pKd 3.1 to 4
Details: plain residues with an end cap or a label only (N-terminal biotin on a linker: ado-ado)

Binder | pKd
B1 | 5.86
B2 | 5.5

Biological target: IL16_1, Q14005
Sequence (Q14005 210-306): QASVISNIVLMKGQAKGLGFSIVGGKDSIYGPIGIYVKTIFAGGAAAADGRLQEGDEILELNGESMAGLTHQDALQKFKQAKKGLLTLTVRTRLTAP
Test: holdup assay
Design: key: below the threshold = too weak to quantify, mostly under pKd 3.1 to 4
Details: plain residues with an end cap or a label only (N-terminal biotin on a linker: ado-ado)

Binder | pKd
B1 | below the threshold
B2 | 3.55

Biological target: Inadl_10, Q8NI35
Sequence (Q8NI35 1673-1763): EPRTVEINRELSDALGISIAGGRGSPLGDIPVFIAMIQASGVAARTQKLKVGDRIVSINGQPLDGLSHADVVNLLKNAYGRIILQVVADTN
Test: holdup assay
Design: key: below the threshold = too weak to quantify, mostly under pKd 3.1 to 4
Details: plain residues with an end cap or a label only (N-terminal biotin on a linker: ado-ado)

Binder | pKd
B1 | below the threshold
B2 | 5.45

Biological target: LDB3, O75112
Sequence (O75112 1-94): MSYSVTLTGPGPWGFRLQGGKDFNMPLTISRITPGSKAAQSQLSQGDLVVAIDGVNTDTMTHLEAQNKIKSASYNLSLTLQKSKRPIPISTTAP
Test: holdup assay
Design: key: below the threshold = too weak to quantify, mostly under pKd 3.1 to 4
Details: plain residues with an end cap or a label only (N-terminal biotin on a linker: ado-ado)

Binder | pKd
B1 | below the threshold
B2 | 4.36

Biological target: LNX1_1, Q8TBB1
Sequence (Q8TBB1 261-371): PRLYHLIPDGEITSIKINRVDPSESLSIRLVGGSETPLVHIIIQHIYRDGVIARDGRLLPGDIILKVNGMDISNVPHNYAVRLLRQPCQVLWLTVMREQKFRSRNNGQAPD
Test: holdup assay
Design: key: below the threshold = too weak to quantify, mostly under pKd 3.1 to 4
Details: plain residues with an end cap or a label only (N-terminal biotin on a linker: ado-ado)

Binder | pKd
B1 | below the threshold
B2 | 4.25

Biological target: LNX1_3, Q8TBB1
Sequence (Q8TBB1 500-596): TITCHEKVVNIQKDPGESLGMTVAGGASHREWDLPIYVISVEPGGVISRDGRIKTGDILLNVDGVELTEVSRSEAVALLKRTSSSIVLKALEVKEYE
Test: holdup assay
Design: key: below the threshold = too weak to quantify, mostly under pKd 3.1 to 4
Details: plain residues with an end cap or a label only (N-terminal biotin on a linker: ado-ado)

Binder | pKd
B1 | below the threshold
B2 | below the threshold

Biological target: T7, LNX2_3, Q8N448
Test: holdup assay
Design: key: below the threshold = too weak to quantify, mostly under pKd 3.1 to 4
Details: plain residues with an end cap or a label only (N-terminal biotin on a linker: ado-ado)

Binder | pKd
B1 | below the threshold
B2 | below the threshold

Biological target: T8, LRRC7, Q96NW7
Test: holdup assay
Design: key: below the threshold = too weak to quantify, mostly under pKd 3.1 to 4
Details: plain residues with an end cap or a label only (N-terminal biotin on a linker: ado-ado)

Binder | pKd
B1 | below the threshold
B2 | 4.17

Biological target: MAGI1_2, Q96QZ7
Sequence (Q96QZ7 456-580): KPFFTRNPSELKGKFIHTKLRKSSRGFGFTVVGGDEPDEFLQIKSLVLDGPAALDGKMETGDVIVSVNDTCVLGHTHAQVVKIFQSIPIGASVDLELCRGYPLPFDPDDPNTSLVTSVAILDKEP
Test: holdup assay
Design: key: below the threshold = too weak to quantify, mostly under pKd 3.1 to 4
Details: plain residues with an end cap or a label only (N-terminal biotin on a linker: ado-ado)

Binder | pKd
B1 | below the threshold
B2 | 3.49

Biological target: MAGI2_3, Q86UL8
Sequence (Q86UL8 600-682): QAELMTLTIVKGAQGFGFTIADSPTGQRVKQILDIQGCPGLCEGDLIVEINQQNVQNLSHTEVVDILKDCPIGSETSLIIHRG
Test: holdup assay
Design: key: below the threshold = too weak to quantify, mostly under pKd 3.1 to 4
Details: plain residues with an end cap or a label only (N-terminal biotin on a linker: ado-ado)

Binder | pKd
B1 | below the threshold
B2 | below the threshold

Biological target: T9, MPDZ_12, O75970
Test: holdup assay
Design: key: below the threshold = too weak to quantify, mostly under pKd 3.1 to 4
Details: plain residues with an end cap or a label only (N-terminal biotin on a linker: ado-ado)

Binder | pKd
B1 | 4.2
B2 | 4.98

Biological target: NHERF4_1, Q86UT5-2
Sequence (Q86UT5 other isoform, or with tags, fused parts or gaps): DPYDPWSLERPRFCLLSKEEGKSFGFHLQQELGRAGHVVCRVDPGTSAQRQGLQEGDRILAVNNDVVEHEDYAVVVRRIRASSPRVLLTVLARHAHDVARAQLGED
Test: holdup assay
Design: key: below the threshold = too weak to quantify, mostly under pKd 3.1 to 4
Details: plain residues with an end cap or a label only (N-terminal biotin on a linker: ado-ado)

Binder | pKd
B1 | 4.34
B2 | 4.15

Biological target: NHERF4_2, Q86UT5
Sequence (Q86UT5 220-308): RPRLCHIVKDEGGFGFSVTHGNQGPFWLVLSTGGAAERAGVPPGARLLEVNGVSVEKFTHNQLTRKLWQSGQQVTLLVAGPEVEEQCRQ
Test: holdup assay
Design: key: below the threshold = too weak to quantify, mostly under pKd 3.1 to 4
Details: plain residues with an end cap or a label only (N-terminal biotin on a linker: ado-ado)

Binder | pKd
B1 | below the threshold
B2 | below the threshold

Biological target: NHERF4_4, Q86UT5
Sequence (Q86UT5 464-550): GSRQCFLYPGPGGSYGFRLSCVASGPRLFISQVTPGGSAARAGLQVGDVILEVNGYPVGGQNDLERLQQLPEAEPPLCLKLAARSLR
Test: holdup assay
Design: key: below the threshold = too weak to quantify, mostly under pKd 3.1 to 4
Details: plain residues with an end cap or a label only (N-terminal biotin on a linker: ado-ado)

Binder | pKd
B1 | below the threshold
B2 | 4.16

Biological target: PDZRN4_1, Q6ZMN7
Sequence (Q6ZMN7 213-318): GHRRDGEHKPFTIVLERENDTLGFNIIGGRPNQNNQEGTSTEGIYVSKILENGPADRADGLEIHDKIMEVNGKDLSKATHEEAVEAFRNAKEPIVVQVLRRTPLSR
Test: holdup assay
Design: key: below the threshold = too weak to quantify, mostly under pKd 3.1 to 4
Details: plain residues with an end cap or a label only (N-terminal biotin on a linker: ado-ado)

Binder | pKd
B1 | below the threshold
B2 | 4.1

Biological target: T10, RHPN1, Q8TCX5
Test: holdup assay
Design: key: below the threshold = too weak to quantify, mostly under pKd 3.1 to 4
Details: plain residues with an end cap or a label only (N-terminal biotin on a linker: ado-ado)

Binder | pKd
B1 | below the threshold
B2 | 4.7

Biological target: SCRIB_1, Q14160
Sequence (Q14160 718-814): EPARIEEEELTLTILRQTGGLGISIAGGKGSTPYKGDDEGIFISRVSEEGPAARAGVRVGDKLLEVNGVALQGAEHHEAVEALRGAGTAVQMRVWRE
Test: holdup assay
Design: key: below the threshold = too weak to quantify, mostly under pKd 3.1 to 4
Details: plain residues with an end cap or a label only (N-terminal biotin on a linker: ado-ado)

Binder | pKd
B1 | below the threshold
B2 | 4.47

Biological target: TJP1_2, Q07157
Sequence (Q07157 181-274): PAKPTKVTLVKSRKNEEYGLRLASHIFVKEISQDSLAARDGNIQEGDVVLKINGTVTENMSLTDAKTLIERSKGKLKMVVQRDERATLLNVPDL
Test: holdup assay
Design: key: below the threshold = too weak to quantify, mostly under pKd 3.1 to 4
Details: plain residues with an end cap or a label only (N-terminal biotin on a linker: ado-ado)

Binder | pKd
B1 | 3.6
B2 | 3.67

Biological target: TJP1_3, Q07157
Sequence (Q07157 416-512): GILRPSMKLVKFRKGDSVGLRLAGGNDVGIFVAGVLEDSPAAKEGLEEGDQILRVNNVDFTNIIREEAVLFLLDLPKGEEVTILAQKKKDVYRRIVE
Test: holdup assay
Design: key: below the threshold = too weak to quantify, mostly under pKd 3.1 to 4
Details: plain residues with an end cap or a label only (N-terminal biotin on a linker: ado-ado)

Binder | pKd
B1 | 3.89
B2 | below the threshold
